The experiment addresses NL-IL23R co-expressed with IL12Rβ1 (IL-23 receptor on cells) (UniProt Q5VWK5). Briefly: FRET or BRET; NanoBRET competition on living transfected HEK293T cells; 300 pM IL23-TMR displaced by unlabelled antagonist (concentration series or a single concentration); 1 h at 37 °C in HBSS with 1 mg/mL BSA. In general terms: Bioluminescence resonance energy transfer reports proximity on the nanometre scale.

Chain of NL-IL23R co-expressed with IL12Rβ1 (IL-23 receptor on cells) (Q5VWK5 24-629, chain 1 of 2, other chains not shown): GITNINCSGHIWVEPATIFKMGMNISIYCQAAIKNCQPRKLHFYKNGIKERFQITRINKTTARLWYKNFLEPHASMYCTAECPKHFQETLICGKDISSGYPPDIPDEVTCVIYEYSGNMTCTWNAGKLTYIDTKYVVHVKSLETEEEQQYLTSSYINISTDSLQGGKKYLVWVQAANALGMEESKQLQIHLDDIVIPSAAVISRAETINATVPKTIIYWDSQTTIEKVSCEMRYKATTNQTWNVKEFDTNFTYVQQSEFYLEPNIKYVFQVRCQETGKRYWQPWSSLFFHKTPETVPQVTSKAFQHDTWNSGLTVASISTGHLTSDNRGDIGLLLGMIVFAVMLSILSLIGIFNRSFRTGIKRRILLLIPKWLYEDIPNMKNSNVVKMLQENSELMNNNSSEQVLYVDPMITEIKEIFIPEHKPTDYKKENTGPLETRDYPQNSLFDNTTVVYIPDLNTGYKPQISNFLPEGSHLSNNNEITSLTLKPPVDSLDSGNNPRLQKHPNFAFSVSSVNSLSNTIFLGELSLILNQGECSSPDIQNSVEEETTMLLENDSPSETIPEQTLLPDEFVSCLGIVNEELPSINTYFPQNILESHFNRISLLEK

As usually defined, the Ki is a dissociation constant, usually derived from enzyme kinetics or from competition with a known ligand. Lower therefore signals higher affinity. Take “IL12p80 (from UniProt P29460 23-328) (ligand)”: the inhibition constant (Ki) was 0.469 nM. This lies in the sub-nanomolar range.

Values taken from publication PMC10199020.
